According to patent publication US20120294865A1 (REGENTS OF THE UNIVERSITY OF MICHIGAN, published 2012):

T1: peptide of SEQ ID NO: 32 (YANNPRVVFNLNTYK) (human)
T1 construct: 15-mer on a peptide microarray (ProImmune)
T1 peptide: YANNPRVVFNLNTYK

T2: peptide of SEQ ID NO: 33 (AIASIPTERYFFNVS) (human)
T2 construct: 15-mer on a peptide microarray (ProImmune)
T2 peptide: AIASIPTERYFFNVS

B1: Ab 770.8 (antibody, V domains shown)
VH: EVKLEESGTVLARPGASVKMSCKASGYSFTSYWMHWVKQRPGQGLEWIGAFYPGNSEDKYNENFKIKAKLTAVTSVNTVYMELSSLTSEDSAVYYCTRGTTLVAPGFDVWGAGTTVTVSS
VL: DIVMTQSPAILSVSPGERVSFSCRASQSIGTSIHWYQQRTNGSPRLLIKYVSESISGIPSRFSGSGSGTDFTLTINSVESEDIADYYCQHSNRWPLTFGAGTKLELKR
notes: Mouse monoclonal antibody from a hybridoma, used as ascites or purified
B2: Ab 778.17 (antibody, V domains shown)
VH: QVQLQQPGAELVRPGTSVKLSCKASGYTFASYWMNWVSQRPEQGLEWIGRIDPYDSETHYNQKFKDKAILTVDKSSSTAYIQLNSLTSEDSAVYYCARLGRGPFAYWGQGTLVTVSA
VL: DIVMTQTPTSLAVSLGQRATISCRASESVDSYDNSFMYWYQQKPGQPPKLLIYFASNLESGVPARFSGSGSRTDFTLTIDPVEADDAATYYCQQNNEDPYTFGGGTKLEIKR
notes: Mouse monoclonal antibody from a hybridoma

Columns and labels:
[1] = molecular target: T1, peptide of SEQ ID NO: 32 …; assay: peptide microarray, fluorescent secondary antibody
Experimental: (§1) Epitope mapping was performed by incubating monoclonal antibody (mAb) samples with a peptide microarray, followed by incubation with a fluorescent-labelled secondary antibody. After washing, the microarray was scanned in a high-resolution scanning system. The peptide microarray consisted of a set of 15-mer peptides overlapping by 10 residues taken from the human alpha-2 integrin subunit (Genbank accession number AAM34795.1; amino acid residues 1-1133 were used). Peptide arrays, antibody incubations, scanning and data analysis were generated by ProImmune Inc, 4281 Express Lane, Suite L2378, Sarasota, Fla. 34238.

[2] = molecular target: T2, peptide of SEQ ID NO: 33 …; assay: peptide microarray, fluorescent secondary antibody
Experimental: as §1

Row | Binder | binding result [1] | binding result [2]
1 | B1 | binds | binds
2 | B2 | binds | binds
